Measurements: publication PMC3668531 (FEBS Open Bio, 2012)

Target: the molecule itself
Test: crystal structure; H101N crystals by vapour diffusion (7-8% PEG 20,000, 50 mM MES pH 6.3), 1 mM MnCl2 added, quick soak in 33% (w/v) L-rhamnose or D-allose; data at 100 K; four molecules (Mol-A to Mol-D) forming the tetramer

B1: mutant P. stutzeri L-RhI with a substitution of His101 with Asn (H101N) (enzyme, Pseudomonas stutzeri)
chain: MAEFRIAQDVVARENDRRASALKEDYEALGANLARRGVDIEAVTAKVEKFFVAVPSWGVGTGGTRFARFPGTGEPRGIFDKLDDCAVIQQLTRATPNVSLNIPWDKADPKELKARGDALGLGFDAMNSNTFSDAPGQAHSYKYGSLSHTDAATRAQAVEHNLECIEIGKAIGSKALTVWIGDGSNFPGQSNFTRAFERYLSAMAEIYKGLPDDWKLFSEHKMYEPAFYSTVVQDWGTNYLIAQTLGPKAQCLVDLGHHAPNTNIEMIVARLIQFGKLGGFHFNDSKYGDDDLDAGAIEPYRLFLVFNELVDAEARGVKGFHPAHMIDQSHNVTDPIESLINSANEIRRAYAQALLVDRAALSGYQEDNDALMATETLKRAYRTDVEPILAEARRRTGGAVDPVATYRASGYRARVAAERPASVAGGGGII
  stoichiometry N: 4
